Among the data in patent US20170016905A1 (VAR2 PHARMACEUTICALS, published 2017) are Kd values, retold here.

Assay [1] concerns the target CSPG (bovine) (D8428, Sigma) (bovine) (UniProt P21793). Description: quartz crystal microbalance (Attana A100), CSPG coated, 1:1 fit.
For assay [2], the target named is T1, CSPG (bovine) (D8428, Sigma) (bovine, UniProt P21793 31-360, carries chondroitin sulfate A (CSA) glycosaminoglycan chain(s); the filing attributes the binding of VAR2CSA to this glycan).
T1 construct: also called chondroitin sulfate proteoglycan; CSA proteoglycan
The assay is described as above.

Chain of CSPG (bovine) (D8428, Sigma) (bovine) (P21793 31-360): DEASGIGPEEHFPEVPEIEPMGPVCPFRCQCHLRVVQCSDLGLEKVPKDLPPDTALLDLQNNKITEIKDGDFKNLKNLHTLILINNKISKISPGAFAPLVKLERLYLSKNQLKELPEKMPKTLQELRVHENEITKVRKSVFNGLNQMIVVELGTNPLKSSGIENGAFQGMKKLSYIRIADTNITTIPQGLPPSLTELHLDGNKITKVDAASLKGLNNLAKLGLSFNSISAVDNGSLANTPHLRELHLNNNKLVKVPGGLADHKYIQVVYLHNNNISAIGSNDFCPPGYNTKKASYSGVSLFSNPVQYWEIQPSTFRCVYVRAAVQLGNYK
T1 sequence (P21793 31-360): as above

One may read the Kd as the equilibrium constant for the complex coming apart. High values mean a looser complex, low ones a tighter complex. In assay [1], ID1-DBL3ε (FCR3, Baculo) yielded a Kd of 0.3 nM.
Still for that read-out and setting: the result for DBL2X-DBL4ε (FCR3, Baculo) reads 2.4 nM; that for ID1-DBL4ε (FCR3, Baculo), 8.6 nM.

B1: DBL2X-DBL4ε (3D7, Baculo) (other)
chain: LTNCYKCDKCKSEQSKKNNKNWIWKKSSGKEGGLQKEYANTIGLPPRTQSLCLVVCLDEKGKKTQELKNIRTNSELLKEWIIAAFHEGKNLKPSHEKKNDDNGKKLCKALEYSFADYGDLIKGTSIWDNEYTKDLELNLQKIFGKLFRKYIKKNNTAEQDTSYSSLDELRESWWNTNKKYIWLAMKHGAGMNSTTCCGDGSVTGSGSSCDDIPTIDLIPQYLRFLQEWVEHFCKQRQEKVKPVIENCKSCKESGGTCNGECKTECKNKCEVYKKFIEDCKGGDGTAGSSWVKRWDQIYKRYSKYIEDAKRNRKAGTKNCGPSSTTNAAENKCVQSDIDSFFKHLIDIGLTTPSSYLSIVLDDNICGADKAPWTTYTTYTTTEKCNKETDKSKLQQCNTAVVVNVPSPLGNTPHGYKYACQCKIPTNEETCDDRKEYMNQWSCGSARTMKRGYKNDNYELCKYNGVDVKPTTVRSNSSKLDDKDVTFFNLFEQWNKEIQYQIEQYMTNTKISCNNEKNVLSRVSDEAAQPKFSDNERDRNSITHEDKNCKEKCKCYSLWIEKINDQWDKQKDNYNKFQRKQIYDANKGSQNKKVVSLSNFLFFSCWEEYIQKYFNGDWSKIKNIGSDTFEFLIKKCGNDSGDGETIFSEKLNNAEKKCKENESTNNKMKSSETSCDCSEPIYIRGCQPKIYDGKIFPGKGGEKQWICKDTIIHGDTNGACIPPRTQNLCVGELWDKRYGGRSNIKNDTKESLKQKIKNAIQKETELLYEYHDKGTAIISRNPMKGQKEKEEKNNDSNGLPKGFCHAVQRSFIDYKNMILGTSVNIYEYIGKLQEDIKKIIEKGTTKQNGKTVGSGAENVNAWWKGIEGEMWDAVRCAITKINKKQKKNGTFSIDECGIFPPTGNDEDQSVSWFKEWSEQFCIERLQYEKNIRDACTNNGQGDKIQGDCKRKCEEYKKYISEKKQEWDKQKTKYENKYVGKSASDLLKENYPECISANFDFIFNDNIEYKTYYPYGDYSSICSCEQVKYYEYNNAEKKNNKSLCHEKGNDRTWSKKYIKKLENGRTLEGVYVPPRRQQLCLYELFPIIIKNKNDITNAKKELLETLQIVAEREAYYLWKQYHAHNDTTYLAHKKACCAIRGSFYDLEDIIKGNDLVHDEYTKYIDSKLNEIFDSSNKNDIETKRARTDWWENEAIAVPNITGANKSDPKTIRQLVWDAMQSGVRKAIDEEKEKKKPNENFPPCMGVQHIGIAKPQFIRWLEEWTNEFCEKYTKYFEDMKSNCNLRKGADDCDDNSNIECKKACANYTNWLNPKRIEWNGMSNYYNKIYRKSNKESEDGKDYSMIMEPTVIDYLNKRCNGEINGNYICCSCKNIGENSTSGTVNKKLQKKETQCEDNKGPLDLMNKVLNKMDPKYSEHKMKCTEVYLEHVEEQLKEIDNAIKDYKLYPLD
notes: not shown: V5 and His tag at the C-terminal (modified pAcGP67-A)
B1 showed a dissociation constant (Kd) in assay [2] of 1.2 nM.

B2: ID1-DBL4ε (3D7, Baculo) (other)
chain: LSFILNSSDANNPSEKIQKNNDEVCNCNESGIASVEQEQISDPSSNKTCITHSSIKANKKKVCKHVKLGVRENDKDLRVCVIEHTSLSGVENCCCQDFLRILQENCSDNKSGSSSNGSCNNKNQEACEKNLEKVLASLTNCYKCDKCKSEQSKKNNKNWIWKKSSGKEGGLQKEYANTIGLPPRTQSLCLVVCLDEKGKKTQELKNIRTNSELLKEWIIAAFHEGKNLKPSHEKKNDDNGKKLCKALEYSFADYGDLIKGTSIWDNEYTKDLELNLQKIFGKLFRKYIKKNNTAEQDTSYSSLDELRESWWNTNKKYIWLAMKHGAGMNSTTCCGDGSVTGSGSSCDDIPTIDLIPQYLRFLQEWVEHFCKQRQEKVKPVIENCKSCKESGGTCNGECKTECKNKCEVYKKFIEDCKGGDGTAGSSWVKRWDQIYKRYSKYIEDAKRNRKAGTKNCGPSSTTNAAENKCVQSDIDSFFKHLIDIGLTTPSSYLSIVLDDNICGADKAPWTTYTTYTTTEKCNKETDKSKLQQCNTAVVVNVPSPLGNTPHGYKYACQCKIPTNEETCDDRKEYMNQWSCGSARTMKRGYKNDNYELCKYNGVDVKPTTVRSNSSKLDDKDVTFFNLFEQWNKEIQYQIEQYMTNTKISCNNEKNVLSRVSDEAAQPKFSDNERDRNSITHEDKNCKEKCKCYSLWIEKINDQWDKQKDNYNKFQRKQIYDANKGSQNKKVVSLSNFLFFSCWEEYIQKYFNGDWSKIKNIGSDTFEFLIKKCGNDSGDGETIFSEKLNNAEKKCKENESTNNKMKSSETSCDCSEPIYIRGCQPKIYDGKIFPGKGGEKQWICKDTIIHGDTNGACIPPRTQNLCVGELWDKRYGGRSNIKNDTKESLKQKIKNAIQKETELLYEYHDKGTAIISRNPMKGQKEKEEKNNDSNGLPKGFCHAVQRSFIDYKNMILGTSVNIYEYIGKLQEDIKKIIEKGTTKQNGKTVGSGAENVNAWWKGIEGEMWDAVRCAITKINKKQKKNGTFSIDECGIFPPTGNDEDQSVSWFKEWSEQFCIERLQYEKNIRDACTNNGQGDKIQGDCKRKCEEYKKYISEKKQEWDKQKTKYENKYVGKSASDLLKENYPECISANFDFIFNDNIEYKTYYPYGDYSSICSCEQVKYYEYNNAEKKNNKSLCHEKGNDRTWSKKYIKKLENGRTLEGVYVPPRRQQLCLYELFPIIIKNKNDITNAKKELLETLQIVAEREAYYLWKQYHAHNDTTYLAHKKACCAIRGSFYDLEDIIKGNDLVHDEYTKYIDSKLNEIFDSSNKNDIETKRARTDWWENEAIAVPNITGANKSDPKTIRQLVWDAMQSGVRKAIDEEKEKKKPNENFPPCMGVQHIGIAKPQFIRWLEEWTNEFCEKYTKYFEDMKSNCNLRKGADDCDDNSNIECKKACANYTNWLNPKRIEWNGMSNYYNKIYRKSNKESEDGKDYSMIMEPTVIDYLNKRCNGEINGNYICCSCKNIGENSTSGTVNKKLQKKETQCEDNKGPLDLMNKVLNKMDPKYSEHKMKCTEVYLEHVEEQLKEIDNAIKDYKLYPLD
notes: as for B1
In turn, B2 had a Kd in assay [2] of 9.4 nM. Compared with the last molecule, the Kd is about 7.8-fold higher.

B3: ID1-DBL3ε (3D7, Baculo) (other)
chain: LSFILNSSDANNPSEKIQKNNDEVCNCNESGIASVEQEQISDPSSNKTCITHSSIKANKKKVCKHVKLGVRENDKDLRVCVIEHTSLSGVENCCCQDFLRILQENCSDNKSGSSSNGSCNNKNQEACEKNLEKVLASLTNCYKCDKCKSEQSKKNNKNWIWKKSSGKEGGLQKEYANTIGLPPRTQSLCLVVCLDEKGKKTQELKNIRTNSELLKEWIIAAFHEGKNLKPSHEKKNDDNGKKLCKALEYSFADYGDLIKGTSIWDNEYTKDLELNLQKIFGKLFRKYIKKNNTAEQDTSYSSLDELRESWWNTNKKYIWLAMKHGAGMNSTTCCGDGSVTGSGSSCDDIPTIDLIPQYLRFLQEWVEHFCKQRQEKVKPVIENCKSCKESGGTCNGECKTECKNKCEVYKKFIEDCKGGDGTAGSSWVKRWDQIYKRYSKYIEDAKRNRKAGTKNCGPSSTTNAAENKCVQSDIDSFFKHLIDIGLTTPSSYLSIVLDDNICGADKAPWTTYTTYTTTEKCNKETDKSKLQQCNTAVVVNVPSPLGNTPHGYKYACQCKIPTNEETCDDRKEYMNQWSCGSARTMKRGYKNDNYELCKYNGVDVKPTTVRSNSSKLDDKDVTFFNLFEQWNKEIQYQIEQYMTNTKISCNNEKNVLSRVSDEAAQPKFSDNERDRNSITHEDKNCKEKCKCYSLWIEKINDQWDKQKDNYNKFQRKQIYDANKGSQNKKVVSLSNFLFFSCWEEYIQKYFNGDWSKIKNIGSDTFEFLIKKCGNDSGDGETIFSEKLNNAEKKCKENESTNNKMKSSETSCDCSEPIYIRGCQPKIYDGKIFPGKGGEKQWICKDTIIHGDTNGACIPPRTQNLCVGELWDKRYGGRSNIKNDTKESLKQKIKNAIQKETELLYEYHDKGTAIISRNPMKGQKEKEEKNNDSNGLPKGFCHAVQRSFIDYKNMILGTSVNIYEYIGKLQEDIKKIIEKGTTKQNGKTVGSGAENVNAWWKGIEGEMWDAVRCAITKINKKQKKNGTFSIDECGIFPPTGNDEDQSVSWFKEWSEQFCIERLQYEKNIRDACTNNGQGDKIQGDCKRKCEEYKKYISEKKQEWDKQKTKYENKYVGKSASDLLKENYPECISANFDFIFNDNIEYKTYYPYGDYSSICSCEQVKYYEYNNAE
notes: as for B1
On to B3, for which the Kd in assay [2] was found to be 8.5 nM.

B4: ID1-DBL2Xb (3D7, Baculo) (other)
chain: LSFILNSSDANNPSEKIQKNNDEVCNCNESGIASVEQEQISDPSSNKTCITHSSIKANKKKVCKHVKLGVRENDKDLRVCVIEHTSLSGVENCCCQDFLRILQENCSDNKSGSSSNGSCNNKNQEACEKNLEKVLASLTNCYKCDKCKSEQSKKNNKNWIWKKSSGKEGGLQKEYANTIGLPPRTQSLCLVVCLDEKGKKTQELKNIRTNSELLKEWIIAAFHEGKNLKPSHEKKNDDNGKKLCKALEYSFADYGDLIKGTSIWDNEYTKDLELNLQKIFGKLFRKYIKKNNTAEQDTSYSSLDELRESWWNTNKKYIWLAMKHGAGMNSTTCCGDGSVTGSGSSCDDIPTIDLIPQYLRFLQEWVEHFCKQRQEKVKPVIENCKSCKESGGTCNGECKTECKNKCEVYKKFIEDCKGGDGTAGSSWVKRWDQIYKRYSKYIEDAKRNRKAGTKNCGPSSTTNAAENKCVQSDIDSFFKHLIDIGLTTPSSYLSIVLDDNICGADKAPWTTYTTYTTTEKCNKETDKSKLQQCNTAVVVNVPSPLGNTPHGYKY
notes: The start at 16 is derived by me from the forward primer (LSFILN); not shown: V5 and His tag at the C-terminal (modified pAcGP67-A)
Turning to B4, binding in assay [2] was put at a Kd of 21.8 nM. This Kd is about 2.6-fold higher than that of the molecule before.

B5: DBL1-ID2b (FCR3, Baculo) (other)
chain: HSDSGKYDPCEKKLPPYDDNDQWKCQQNSSDGSGKPENICVPPRRERLCTYNLENLKFDKIRDNNAFLADVLLTARNEGEKIVQNHPDTNSSNVCNALERSFADLADIIRGTDQWKGTNSNLEKNLKQMFAKIRENDKVLQDKYPKDQKYTKLREAWWNANRQKVWEVITCGARSNDLLIKRGWRTSGKSDRKKNFELCRKCGHYEKEVPTKLDYVPQFLRWLTEWIEDFYREKQNLIDDMERHREECTREDHKSKEGTSYCSTCKDKCKKYCECVKKWKTEWENQENKYKDLYEQNKNKTSQKNTSRYDDYVKDFFEKLEANYSSLENYIKGDPYFAEYATKLSFILNPSDANNPSGETANHNDEACNCNESGISSVGQAQTSGPSSNKTCITHSSIKTNKKKECKDVKLGVRENDKDLKICVIEDTSLSGVDNCCCQDLLGILQENCSDNKRGSSSNDSCDNKNQDECQKKLEKVFASLTNGYKCDKCKSGTSRSKKKWIWKKSSGNEEGLQEEYANTIGLPPRTQSLYLGNLPKLENVCEDVKDINFDTKEKFLAGCLIVSFHEGKNLKKRYPQNKNSGNKENLCKALEYSFADYGDLIKGTSIWDNEYTKDLELNLQNNFGKLFGKYIKKNNTAEQDTSYSSLDELRESWWNTNKKYIWTAMKHGAEMNITTCNADGSVTGSGSSCDDIPTIDLIPQYLRFLQEWVENFCEQRQAKVKDVITNCKSCKESGNKCKTECKTKCKDECEKYKKFIEACGTAGGGIGTAGSPWSKRWDQIYKRYSKHIEDAKRNRKAGTKNCGTSSTTNAAASTDENKCVQSDIDSFFKHLIDIGLTTPSSYLSNVLDDNICGADKAPWTTYTTYTTTEKCNKERDKSKSQSSDTLVVVNVPSPLGNTPYRYKYACQCKIPTNEETCDDRKEYMNQWSCGSARTMKRGYKNDNYELCKYNGVDVKPTTVRSNSSKLDGNDVTFFNLFEQWNKEIQYQIEQYMTNANISCIDEKEVLDSVSDEGTPKVRGGYEDGRNNNTDQGTNCKEKCKCYKLWIEKINDQWGKQKDNYNKFRSKQIYDANKGSQNKKVVSLSNFLFFSCWEEYIQKYFNGDWSKIKNIGSDTFEFLIKKCGNNSAHGEEIFNEKLKNAEKKCKENESTDTNINK
notes: Range derived by me from the FCR3 DBL1X forward primer (HSDSGK) and the FCR3 ID2b reverse primer (TDTNINK); also called DBL1X-ID2b; not shown: V5 and His tag at the C-terminal (modified pAcGP67-A)
In assay [2], B5 came in with a Kd of 1.5 nM.
